According to the supplement of paper PMC10567573:
± gives the standard deviation.

Assay: protein stability index of a GFP-peptide fusion (GPS, HEK-293T) (PSI 1-6); higher = more stable
Conditions: c terminus: a fixed tail appended
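Further: 24-mer peptide tiles fused after GFP, lentivirally expressed, FACS-sorted into six equal bins by GFP/DsRed ratio, decoded by Illumina sequencing, PSI is the read-weighted mean bin number.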

Row | Sequence | protein stability index (treatment: DMSO) | protein stability index (treatment: MLN4924 1 uM, 8 h)
1 | CTNIFYEEENPGGCEDEYLVNPTC [ZER1] | 4.31 ± 0.2 | 4.36 ± 0.33
2 | MALQLGRLSSGPCWLVARGGCGGP [CPOX] | 2.36 ± 0.38 | 2.44 ± 0.38
3 | FGHLSVFSTSKWNHLLHHFVIGHL [FADS1] | 2.58 ± 0.41 | 2.76 ± 0.78
4 | VPLGPLGETYCEEHGEKIYFFCEN [TRIM15] | 3.42 ± 0.15 | 3.54 ± 0.36
5 | HGIRPPQLEQPEKMPVLKAEASHY [RHOBTB3] | 4.41 ± 0.11 | 4.41 ± 0.2
6 | VAFVDRADIKQYIGPPSAAAIFKI [TRIP13] | 2.82 ± 0.66 | 2.36 ± 0.47
7 | VACSETAPDLVLNAEMVQQTTYLE [LOXL2] | 4.41 ± 0.53 | 4.5 ± 0.25
8 | TLHPDASANFHSLDDIYYFGGQNA [FUT8] | 3.21 ± 0.12 | 3.27 ± 0.16
9 | SSSSSSSSSSGPGHGEPDVLKDEL [TMEM40] | 5.44 ± 0.15 | 5.42 ± 0.21
10 | TQRLWDFTQSGPIVSRATGRCLEV [GALNT9] | 2.81 ± 0.43 | 3.02 ± 0.22
11 | DVQLGDIILTATDGLFDNMPDYMI [PPTC7] | 2.58 ± 0.33 | 2.62 ± 0.42
12 | AAALDYEADGSTNNGIFQINSRRW [SPACA3] | 3.64 ± 0.46 | 3.76 ± 0.35
13 | RRCKPKKPTRRDASPESPSKKGPI [GNAS] | 5.15 ± 0.21 | 5.23 ± 0.22
14 | YLSNARPDNWFCYPCIPNHELVWA [ZMYND11] | 2.67 ± 0.34 | 2.23 ± 0.49
15 | NMEKYNFLGISIVGQSNERGDGGI [DVL3] | 3.18 ± 0.28 | 3.16 ± 0.82
16 | GSLYVFGGTTGYIYSTDLHKLDLN [KLHDC10] | 2.4 ± 0.5 | 2.66 ± 0.46
17 | DLVNRTPWKKCCFSGDGEYIVAGS [RBBP5] | 2.64 ± 0.25 | 2.37 ± 0.21
18 | SLKFFLNKPMLADVVFEIQGTTVP [RHOBTB3] | 2.68 ± 0.39 | 2.29 ± 0.37
19 | KNHEEEMLALRGQTGGDVNVEMDA [KRT16] | 5.46 ± 0.17 | 5.6 ± 0.22
20 | IRDIRRRGKNKMAAQNCRKRKLDT [NFE2L1] | 3.84 ± 0.29 | 3.94 ± 0.32
21 | ISLTCVSVAFAVAWFLPMPQKSLF [SLC19A2] | 3.15 ± 0.18 | 3.19 ± 0.17
22 | PGSGSGPGPGSGPGSGPGHGSGSH [SPAG8] | 5 ± 0.17 | 4.93 ± 0.18
23 | TRGKRESESRGSSGRVKRERDRER [USP39] | 5.04 ± 0.26 | 5.3 ± 0.18

Row | Sequence | protein stability index (treatment: DMSO) | protein stability index (treatment: MLN4924 1 uM, 8 h)
24 | RDGRRDRYSSDTTPLLNGSSQDRM [GOSR1] | 4.76 ± 0.07 | 4.85 ± 0.2
25 | PCFKWYTSPWSECTKTCGVGVRMR [ADAMTSL2] | 2.07 ± 0.17 | 2.33 ± 0.32
26 | LLAAQVQLQCSPAELQAELLHSQA [FBF1] | 2.56 ± 0.26 | 2.42 ± 0.45
27 | LRFTSGLVVALDVDATLEHVQDPQ [INTS4] | 2.09 ± 0.25 | 2.43 ± 0.22
28 | LASGLVVFFLFPHSVLVDDDGIKV [TMEM106C] | 2.92 ± 0.48 | 2.86 ± 0.49
29 | PGVLKVLWLTASQPCSIVDVEFLP [LPCAT4] | 3.08 ± 0.27 | 2.87 ± 0.99
30 | LRDRAERIASRAIDNAADLLIFGK [SNX8] | 3.28 ± 0.17 | 3.6 ± 0.31
31 | TSAKVNWMPPPSRADSFKVSYQLA [TNXB] | 2.5 ± 0.32 | 2.69 ± 0.26
32 | RAIPELTKLLNDEDQVVVNKAAVM [CTNNB1] | 3.91 ± 0.16 | 3.89 ± 0.21
33 | SSAYVKTSEKLGEWNEKVTQSDLY [TPD52L2] | 4.02 ± 0.19 | 3.98 ± 0.17
34 | ILNLKKKECKDRGFEYDGKINAWD [NLN] | 2.97 ± 0.26 | 3.43 ± 0.6
35 | LIRGSTFAKAKPEIPWTSLTRKGL [PHTF1] | 2.25 ± 0.17 | 2.41 ± 0.31
36 | QHEESTEGEADHSGYAGELGFRAF [UFD1] | 4.81 ± 0.31 | 4.88 ± 0.31
37 | HLESKDINQEELRALEEVEMKLQK [C10orf62] | 5.31 ± 0.32 | 5.34 ± 0.24
38 | HASSYISPEKEEQYIAQFTSQFLS [PRAME] | 3.06 ± 0.44 | 3.31 ± 0.27
39 | PPWKEAFRQRCLERMRNSRDRLLN [RPAIN] | 2.66 ± 0.18 | 2.75 ± 0.33
40 | TSIGDGPLSSDIQVITQTGVPGQP [PTPRD] | 4.6 ± 0.22 | 4.76 ± 0.19
41 | KVLGNRWAEIAKMLPGRTDNAVKN [MYBL2] | 2.91 ± 0.45 | 2.98 ± 0.24
42 | KCAEVIIPLLSSVNVSDRGGRTAL [ANKRD44] | 2.38 ± 0.37 | 2.37 ± 0.16
43 | KRFQTLISKMEPLEIPVETITSEV [CRY1] | 3.27 ± 0.25 | 3.5 ± 0.39
44 | YLDVDLTLTREQTERLSHQITSRV [RTN2] | 3.17 ± 0.18 | 3.23 ± 0.34
45 | YRGAVYADNMEFEQCIKLWLHALH [FEM1B] | 2.19 ± 0.27 | 2.22 ± 0.48
46 | QLTCFSITCSSTMSYSCCLPSLGC [KRT34] | 3.04 ± 0.58 | 2.65 ± 0.35

Row | Sequence | protein stability index (treatment: DMSO) | protein stability index (treatment: MLN4924 1 uM, 8 h)
47 | TERMDKVGDALEEVLSKALSQRTI [GADD45A] | 3.83 ± 0.26 | 3.83 ± 0.13
48 | EEWNALQSVENCPEDLAQLEELID [RPAIN] | 5.14 ± 0.29 | 5.29 ± 0.26
49 | LPPGFVLKKDKKKEEKEDEISLED [ZC3H15] | 5.54 ± 0.46 | 5.45 ± 0.36
50 | LAGQFLEELRKFSSLCYKQRIKSQ [MOG] | 2.17 ± 0.27 | 2.14 ± 0.38
51 | FLGSSFSPVRCGGPGDASPRGCGA [WEE1] | 2.27 ± 0.34 | 2.61 ± 0.48
52 | NDKMAEYTNSAGVPSLNAALMHTL [GOSR1] | 3.44 ± 0.32 | 3.42 ± 0.23
53 | PLLSGVAQEVSPCGPPSLGAVLAL [MFSD9] | 2.4 ± 0.35 | 2.42 ± 0.18
54 | DGYGMTPLLSASVTGHTNIVDFLT [FEM1C] | 3.01 ± 0.27 | 3.1 ± 0.28
55 | LHLPIMGVVMKVRIPTCHDKPGTT [DENND6A] | 2.24 ± 0.31 | 2.25 ± 0.19
56 | AGIGRTGTFCSLDICLAQLEELGT [PTPN9] | 2.23 ± 0.24 | 2.62 ± 0.64
57 | TESYIARPDGDCASSLNGGNIKGI [ZC2HC1A] | 4.09 ± 0.047 | 4.24 ± 0.21
58 | LRRPRPVQRTQSVPVRRPARRRQS [RASAL3] | 4.99 ± 0.29 | 5.19 ± 0.35
59 | SMDNTPHTPTPFKNALEKYGPLKP [MYBL2] | 3.48 ± 0.092 | 3.7 ± 0.16
60 | KNGRVDSEDRRSRHCPYLDTINRS [USP39] | 3.99 ± 0.26 | 4.2 ± 0.34
61 | VLKKQDAFYKEQLARLEERSSEFY [CHCHD3] | 3.45 ± 0.34 | 3.48 ± 0.12
62 | NDNSPSFATPEREMRISESAASGA [PCDHGC5] | 5.21 ± 0.17 | 5.22 ± 0.089
63 | EEPQTVPEARSRDATPPVSPINME [JUNB] | 5.38 ± 0.29 | 5.46 ± 0.27
64 | VPYCERDYEKMFGTKCHGCDFKID [PDLIM7] | 3.2 ± 0.55 | 3.46 ± 0.22
65 | EHQRSHTGERPHQCIECGKSFNRH [ZSCAN9] | 3.88 ± 0.41 | 4.17 ± 0.41
66 | VRVVFFPLFSNWWIQVTSLRIFVW [PHTF1] | 2.79 ± 0.69 | 2.87 ± 0.77
67 | EYSKFCRMSYQDPAQLSCLPYLEH [NFE2L1] | 2.52 ± 0.56 | 1.89 ± 0.42
68 | GDVCYADVYRDGTGVVEFVRKEDM [SRSF1] | 4.22 ± 0.26 | 4.37 ± 0.042
69 | FVFFVLLNMFLAIINDTYSEVKEE [PKD2L1] | 3.36 ± 0.23 | 3.12 ± 0.26

Row | Sequence | protein stability index (treatment: DMSO) | protein stability index (treatment: MLN4924 1 uM, 8 h)
70 | HSMKPHPAITATLLDFMCRIIPNF [INTS3] | 2.96 ± 0.45 | 3 ± 0.88
71 | FLLVQRFGELMRKLWNPRNFKAHV [USP39] | 2.47 ± 0.51 | 2.54 ± 0.7
72 | MQPTLLLSLLGAVGLAAVNSMPVD [CHGB] | 2.85 ± 0.68 | 2.94 ± 0.69
73 | KGFIQKGNLNIHQRTHTGEKPYGC [ZNF649] | 3.67 ± 0.14 | 3.68 ± 0.2
74 | WVCLAYFTSGFNAAALDYEADGST [SPACA3] | 2.9 ± 0.46 | 2.91 ± 0.25
75 | HIIRIGDLKPTGEIPKQVKVKKLK [DENND6A] | 2.73 ± 0.2 | 3.12 ± 0.19
76 | ICPKCWTLMTMAIRIIDRALKEDF [PRIM1] | 2.25 ± 0.26 | 2.57 ± 0.37
77 | HTPAGAAVSAMKCGLLPISPEALS [ADD1] | 3.13 ± 0.25 | 3.29 ± 0.32
78 | KEAGLSQSHDDLSNATATPSVRKK [C2CD2L] | 5.44 ± 0.19 | 5.53 ± 0.28
79 | SGGHERSRDRRRSSDRSRDSSHER [BTBD10] | 5.48 ± 0.18 | 5.59 ± 0.19
80 | GLADVEANYVIVRAYQYTTLTSVQ [SLC35F2] | 2.24 ± 0.53 | 2.66 ± 0.43
81 | ETEDVDYGETDFHKQDGKAGLFSQ [TMEM40] | 5.3 ± 0.27 | 5.36 ± 0.2
82 | GSDKQQQQQHIECVVCGDKSSGKH [NR2F2] | 4.93 ± 0.35 | 5.07 ± 0.18
83 | QKELQDVGQSLRIKEQEVCKLQEQ [SASS6] | 4.88 ± 0.25 | 5.03 ± 0.36
84 | TRSHLWEAAQVVPDGLGLDEAREE [TRIB3] | 5.13 ± 0.24 | 5.13 ± 0.28
85 | EDDPLLDAQLLPHHSLQAHFRPRF [TMEM192] | 3.57 ± 0.35 | 3.53 ± 0.15
86 | SRLTALTLHQRTHTEERPFKCNYC [ZNF449] | 2.73 ± 0.23 | 3.03 ± 0.4
87 | CEGPPRGKGFRDRNVTGTPLTGDK [ADAMTSL2] | 5.07 ± 0.36 | 5.17 ± 0.16
88 | CAFSRTLPWSSVLRVWDMFFCEGV [TBC1D10A] | 2.85 ± 0.42 | 2.94 ± 0.49
89 | IYAMKILRKSDMLEKEQVAHIRAE [STK38L] | 2.33 ± 0.26 | 2.48 ± 0.22
